Results published in paper PMC10691131, “Self S-RNase reduces the expression of two pollen-specific COBRA genes to inhibit pollen tube growth in pear”.

T1: PbC2H2.K16.2 (pear, UniProt UPI0005117FCC 5-185)
T1 sequence: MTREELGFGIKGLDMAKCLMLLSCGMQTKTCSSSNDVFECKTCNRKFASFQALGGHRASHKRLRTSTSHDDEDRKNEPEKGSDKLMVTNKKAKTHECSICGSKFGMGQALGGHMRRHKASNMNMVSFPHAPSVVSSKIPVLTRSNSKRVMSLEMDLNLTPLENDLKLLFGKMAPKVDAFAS

B1: PbCOB.A.2 promoter probe (PbC2H2.K16.2) (dsDNA)
DNA 1: TAAAAACATGATTGGTCCAATGCAAGTTAT
DNA 2: ATAACTTGCATTGGACCAATCATGTTTTTA
B2: PbCOB.A.1 promoter probe (dsDNA)
DNA 1: TTCGAGGTTTTTGGTCCAGAAAGAAGAAGA
DNA 2: TCTTCTTCTTTCTGGACCAAAAACCTCGAA

Target: T1, PbC2H2.K16.2
Test: EMSA; 10x and 100x cold probe weakens signal; Buffer, salt, pH and temperature not stated; EMSA per Guo et al. 2021, MST per Singh et al. 2014 (Monolith NT.115)
Details: protein: recombinant; tags: His; label: 5' biotin (EMSA)

| Binder | binding result |
| --- | --- |
| B1 | binds |
| B2 | binds |
